Consider 2 molecules from publication PMC12290104, “PEAK1 maintains tight junctions in intestinal epithelial cells and resists colitis by inhibiting autophagy-mediated ZO-1 degradation” (Nature Communications, 2025).

Assay [1] has as its target ZO-1 (UniProt Q07157). Nature of the assay: co-IP of FC-PEAK1, ZO-1 blot. As to conditions: reference: FC-PEAK1 wild type; sites Y724.
In assay [2] the target is T1, GFP-tagged ZO-1 (human, UniProt Q07157 1-1748).
T1 construct: ZO-1, human cDNA cloned into pTriEx-GFP; last truncation ends at 1748; also called GFP-ZO-1; GFP-tagged ZO-1 (WT); source: HEK293T, transfected, in lysate; also purified from HEK293T (anti-GFP magnetic beads, glycine pH 2.5 elution)
T1 sequence (Q07157 whole entry, the tested form may be a part): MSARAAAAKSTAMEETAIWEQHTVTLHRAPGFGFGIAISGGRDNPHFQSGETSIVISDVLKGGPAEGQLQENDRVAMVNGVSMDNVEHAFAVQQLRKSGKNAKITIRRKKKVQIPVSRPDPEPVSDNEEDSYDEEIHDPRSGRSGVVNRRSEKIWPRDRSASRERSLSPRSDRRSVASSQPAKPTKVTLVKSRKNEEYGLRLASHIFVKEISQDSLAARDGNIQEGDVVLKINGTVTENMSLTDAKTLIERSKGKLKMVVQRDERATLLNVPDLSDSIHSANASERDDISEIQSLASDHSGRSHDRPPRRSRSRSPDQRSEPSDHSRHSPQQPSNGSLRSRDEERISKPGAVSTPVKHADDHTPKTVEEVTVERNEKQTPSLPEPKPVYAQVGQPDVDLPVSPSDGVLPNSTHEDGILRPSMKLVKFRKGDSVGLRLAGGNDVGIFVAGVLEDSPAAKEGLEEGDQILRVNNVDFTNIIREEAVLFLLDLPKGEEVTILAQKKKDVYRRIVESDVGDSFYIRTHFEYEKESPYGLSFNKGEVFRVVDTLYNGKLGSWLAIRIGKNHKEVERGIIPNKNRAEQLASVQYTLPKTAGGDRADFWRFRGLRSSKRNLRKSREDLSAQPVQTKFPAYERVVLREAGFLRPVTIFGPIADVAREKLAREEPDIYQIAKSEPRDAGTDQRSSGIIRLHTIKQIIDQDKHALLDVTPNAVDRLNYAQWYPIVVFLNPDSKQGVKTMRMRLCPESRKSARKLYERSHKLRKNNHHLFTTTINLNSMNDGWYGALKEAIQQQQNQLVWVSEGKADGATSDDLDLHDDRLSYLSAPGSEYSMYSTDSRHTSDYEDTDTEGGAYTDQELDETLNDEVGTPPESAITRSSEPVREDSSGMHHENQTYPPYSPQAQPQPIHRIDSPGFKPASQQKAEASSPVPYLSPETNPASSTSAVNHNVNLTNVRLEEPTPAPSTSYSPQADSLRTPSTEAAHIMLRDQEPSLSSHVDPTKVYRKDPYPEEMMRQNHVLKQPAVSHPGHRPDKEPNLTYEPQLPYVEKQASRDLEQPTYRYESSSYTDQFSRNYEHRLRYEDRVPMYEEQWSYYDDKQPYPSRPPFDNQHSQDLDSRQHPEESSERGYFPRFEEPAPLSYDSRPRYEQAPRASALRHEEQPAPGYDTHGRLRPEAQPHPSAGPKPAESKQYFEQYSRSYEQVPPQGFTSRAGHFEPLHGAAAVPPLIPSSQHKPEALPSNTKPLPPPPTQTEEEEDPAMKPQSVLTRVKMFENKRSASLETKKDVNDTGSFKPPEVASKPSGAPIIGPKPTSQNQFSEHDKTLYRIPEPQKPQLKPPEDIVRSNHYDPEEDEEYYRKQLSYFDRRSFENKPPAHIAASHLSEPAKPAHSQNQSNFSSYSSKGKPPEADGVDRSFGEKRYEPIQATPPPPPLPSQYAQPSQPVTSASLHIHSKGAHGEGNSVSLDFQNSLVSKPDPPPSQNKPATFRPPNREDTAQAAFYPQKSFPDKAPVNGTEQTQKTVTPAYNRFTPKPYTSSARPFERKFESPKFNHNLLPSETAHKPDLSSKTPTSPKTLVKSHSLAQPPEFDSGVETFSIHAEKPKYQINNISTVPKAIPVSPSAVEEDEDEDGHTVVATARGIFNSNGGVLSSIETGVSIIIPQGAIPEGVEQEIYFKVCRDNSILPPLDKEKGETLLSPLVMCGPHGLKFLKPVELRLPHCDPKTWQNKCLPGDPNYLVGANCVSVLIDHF
Nature of the assay: pull-down; 10 μg FC-tagged PEAK1^WT or PEAK1^Y724F purified from HEK293T held on Protein A Sepharose (blocked with 10% FBS); GFP-tagged ZO-1 at 0, 1, 2 and 4 μg, 4 h, 4 °C; immunoblot. As to conditions: both partners purified.

As to “PEAK1 (from UniProt Q9H792) FC-PEAK1 Y724F”, the “binding against the reference” value in assay [1] was “weaker”.

B1: FC-tagged PEAK1^WT (Fc fusion, human, UniProt Q9H792 1-1746, looked up)
chain: MSACNTFTEHVWKPGECKNCFKPKSLHQLPPDPEKAPITHGNVKTNANHSNNHRIRNTGNFRPPVAKKPTIAVKPTMIVADGQSICGELSIQEHCENKPVIIGWNRNRAALSQKPLNNNNEDDEGISHVPKPYGNNDSAKKMSDNNNGLTEVLKEIAGLDTAPQIRGNETNSRETFLGRINDCYKRSLERKLPPSCMIGGIKETQGKHVILSGSTEVISNEGGRFCYPEFSSGEESEEDVLFSNMEEEHESWDESDEELLAMEIRMRGQPRFANFRANTLSPVRFFVDKKWNTIPLRNKSLQRICAVDYDDSYDEILNGYEENSVVSYGQGSIQSMVSSDSTSPDSSLTEESRSETASSLSQKICNGGLSPGNPGDSKDMKEIEPNYESPSSNNQDKDSSQASKSSIKVPETHKAVLALRLEEKDGKIAVQTEKEESKASTDVAGQAVTINLVPTEEQAKPYRVVNLEQPLCKPYTVVDVSAAMASEHLEGPVNSPKTKSSSSTPNSPVTSSSLTPGQISAHFQKSSAIRYQEVWTSSTSPRQKIPKVELITSGTGPNVPPRKNCHKSAPTSPTATNISSKTIPVKSPNLSEIKFNSYNNAGMPPFPIIIHDEPTYARSSKNAIKVPIVINPNAYDNLAIYKSFLGTSGELSVKEKTTSVISHTYEEIETESKVPDNTTSKTTDCLQTKGFSNSTEHKRGSVAQKVQEFNNCLNRGQSSPQRSYSSSHSSPAKIQRATQEPVAKIEGTQESQMVGSSSTREKASTVLSQIVASIQPPQSPPETPQSGPKACSVEELYAIPPDADVAKSTPKSTPVRPKSLFTSQPSGEAEAPQTTDSPTTKVQKDPSIKPVTPSPSKLVTSPQSEPPAPFPPPRSTSSPYHAGNLLQRHFTNWTKPTSPTRSTEAESVLHSEGSRRAADAKPKRWISFKSFFRRRKTDEEDDKEKEREKGKLVGLDGTVIHMLPPPPVQRHHWFTEAKGESSEKPAIVFMYRCDPAQGQLSVDQSKARTDQAAVMEKGRAENALLQDSEKKRSHSSPSQIPKKILSHMTHEVTEDFSPRDPRTVVGKQDGRGCTSVTTALSLPELEREDGKEDISDPMDPNPCSATYSNLGQSRAAMIPPKQPRQPKGAVDDAIAFGGKTDQEAPNASQPTPPPLPKKMIIRANTEPISKDLQKSMESSLCVMANPTYDIDPNWDASSAGSSISYELKGLDIESYDSLERPLRKERPVPSAANSISSLTTLSIKDRFSNSMESLSSRRGPSCRQGRGIQKPQRQALYRGLENREEVVGKIRSLHTDALKKLAVKCEDLFMAGQKDQLRFGVDSWSDFRLTSDKPCCEAGDAVYYTASYAKDPLNNYAVKICKSKAKESQQYYHSLAVRQSLAVHFNIQQDCGHFLAEVPNRLLPWEDPDDPEKDEDDMEETEEDAKGETDGKNPKPCSEAASSQKENQGVMSKKQRSHVVVITREVPCLTVADFVRDSLAQHGKSPDLYERQVCLLLLQLCSGLEHLKPYHVTHCDLRLENLLLVHYQPGGTAQGFGPAEPSPTSSYPTRLIVSNFSQAKQKSHLVDPEILRDQSRLAPEIITATQYKKCDEFQTGILIYEMLHLPNPFDENPELKEREYTRADLPRIPFRSPYSRGLQQLASCLLNPNPSERILISDAKGILQCLLWGPREDLFQTFTACPSLVQRNTLLQNWLDIKRTLLMIKFAEKSLDREGGISLEDWLCAQYLAFATTDSLSCIVKILQHR
notes: PEAK1, human cDNA cloned into pTriEx-FC; also called FC-PEAK1; FC-PEAK1^WT; source: HEK293T, transfected, in lysate; also purified from HEK293T (protein A sepharose, glycine pH 2.5 elution)
On to B1, for which the binding result in assay [2] was “binds”.
